Data on two molecules can be found in patent US20240123058A1 (XIAMEN UNIVERSITY, published 2024).

The target in assay [1] is T1, EBV gB protein ectodomain (24-683 aa) of the substituted M81 strain gB protein, C-terminal 6×His tag (EBV M81 strain, UniProt P0C762 24-683).
T1 construct: Expressed in 293F cells; also called EBV gB ectodomain
T1 chain: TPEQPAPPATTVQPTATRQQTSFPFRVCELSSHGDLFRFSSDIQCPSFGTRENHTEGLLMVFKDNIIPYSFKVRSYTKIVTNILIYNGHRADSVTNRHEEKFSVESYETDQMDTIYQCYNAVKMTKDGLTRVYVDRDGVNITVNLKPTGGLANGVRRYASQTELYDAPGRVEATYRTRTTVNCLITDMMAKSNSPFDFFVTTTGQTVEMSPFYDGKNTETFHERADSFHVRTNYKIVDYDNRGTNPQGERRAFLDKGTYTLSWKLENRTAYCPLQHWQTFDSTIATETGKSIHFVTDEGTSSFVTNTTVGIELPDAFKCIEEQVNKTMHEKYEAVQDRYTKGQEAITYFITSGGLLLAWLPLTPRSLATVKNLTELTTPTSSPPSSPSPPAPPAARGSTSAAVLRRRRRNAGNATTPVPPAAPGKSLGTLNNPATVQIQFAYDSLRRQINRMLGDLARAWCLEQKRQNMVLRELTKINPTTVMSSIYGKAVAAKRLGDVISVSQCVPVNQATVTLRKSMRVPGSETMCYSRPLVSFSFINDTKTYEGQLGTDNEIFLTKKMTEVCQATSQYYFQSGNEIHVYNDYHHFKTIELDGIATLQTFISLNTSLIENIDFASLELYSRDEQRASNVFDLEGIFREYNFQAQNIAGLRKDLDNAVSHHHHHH
The experiment in a line: SPR (Biacore 8K): antibody captured on a Protein A chip, EBV-gB as analyte at 1.5625-200 nM. In general terms: SPR reads the build-up and loss of mass on a sensor chip optically.

Assay [2] addresses T2, HBc149 protein chimerized with gB-331˜367aa epitope.
T2 construct: also called Recombination protein gB aa331-367 + HBc149/mut; HBc149 chimeric protein
T2 chain: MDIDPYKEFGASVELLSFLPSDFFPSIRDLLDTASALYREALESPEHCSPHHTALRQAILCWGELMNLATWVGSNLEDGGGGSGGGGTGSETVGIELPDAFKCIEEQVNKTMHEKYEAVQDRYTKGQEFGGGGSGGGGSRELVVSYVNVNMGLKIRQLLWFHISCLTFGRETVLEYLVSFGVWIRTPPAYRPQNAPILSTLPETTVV
Description: indirect ELISA on the coated HBc149 protein chimerized with gB-331~367aa, antibody titrated. (ELISA stands for enzyme-linked immunosorbent assay.)

Assay [3] concerns the target T1, EBV gB protein ectodomain (24-683 aa) …. Description: indirect ELISA, coated gB ectodomain.
Assay [4] concerns the target T3, gB-528~616aa.
T3 construct: as f3
T3 HBc149/mut carrier with inserted gB segment: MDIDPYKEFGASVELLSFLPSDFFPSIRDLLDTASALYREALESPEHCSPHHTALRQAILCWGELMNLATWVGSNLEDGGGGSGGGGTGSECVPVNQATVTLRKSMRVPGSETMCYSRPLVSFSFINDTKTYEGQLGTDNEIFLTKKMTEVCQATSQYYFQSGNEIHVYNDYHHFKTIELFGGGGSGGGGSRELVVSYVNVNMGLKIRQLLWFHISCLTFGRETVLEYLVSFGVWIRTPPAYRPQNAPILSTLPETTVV
Description: Western blot of gB segments displayed on HBc149, reduced and heated.

Assay [5] concerns the target T1, EBV gB protein ectodomain (24-683 aa) …. The experiment in a line: SPR, Biacore 8K, antibody captured on Protein A chip, gB as analyte.
Assay [6] addresses gB protein on EBV virions used in the neutralization models (Epstein-Barr virus). Description: cell-based or functional assay.
The target of assay [7] is T4, wild-type full-length EBV gB protein expressed on cells (EBV M81 strain, UniProt P0C762 22-857).
T4 construct: also called gB protein expressed by cells; natural gB protein
T4 chain: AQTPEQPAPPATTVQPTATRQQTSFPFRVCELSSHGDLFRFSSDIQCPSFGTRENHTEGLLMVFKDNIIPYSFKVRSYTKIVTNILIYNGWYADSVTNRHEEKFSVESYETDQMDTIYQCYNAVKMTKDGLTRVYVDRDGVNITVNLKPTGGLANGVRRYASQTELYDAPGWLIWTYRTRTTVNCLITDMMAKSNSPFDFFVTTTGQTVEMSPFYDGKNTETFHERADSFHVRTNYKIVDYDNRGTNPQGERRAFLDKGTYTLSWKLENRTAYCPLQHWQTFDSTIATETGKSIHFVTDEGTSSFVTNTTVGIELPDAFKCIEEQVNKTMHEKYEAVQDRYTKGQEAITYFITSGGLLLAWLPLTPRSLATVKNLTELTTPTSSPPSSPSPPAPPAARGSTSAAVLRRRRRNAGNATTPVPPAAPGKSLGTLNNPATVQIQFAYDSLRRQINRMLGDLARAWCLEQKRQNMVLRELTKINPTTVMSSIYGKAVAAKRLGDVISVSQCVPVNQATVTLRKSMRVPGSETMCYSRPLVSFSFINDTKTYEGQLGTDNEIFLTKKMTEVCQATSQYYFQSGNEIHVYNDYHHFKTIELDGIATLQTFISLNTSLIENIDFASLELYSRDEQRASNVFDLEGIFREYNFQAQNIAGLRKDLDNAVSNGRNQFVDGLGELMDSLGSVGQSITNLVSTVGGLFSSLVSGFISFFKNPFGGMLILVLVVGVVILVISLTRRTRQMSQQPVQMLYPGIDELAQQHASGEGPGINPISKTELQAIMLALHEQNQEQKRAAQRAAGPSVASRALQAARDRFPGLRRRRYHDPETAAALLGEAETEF
The experiment in a line: immunofluorescence on MDCK cells transfected with full-length wild-type gB.

Assay [8] concerns the target T5, gB-295~390aa.
T5 construct: as f3
T5 HBc149/mut carrier with inserted gB segment: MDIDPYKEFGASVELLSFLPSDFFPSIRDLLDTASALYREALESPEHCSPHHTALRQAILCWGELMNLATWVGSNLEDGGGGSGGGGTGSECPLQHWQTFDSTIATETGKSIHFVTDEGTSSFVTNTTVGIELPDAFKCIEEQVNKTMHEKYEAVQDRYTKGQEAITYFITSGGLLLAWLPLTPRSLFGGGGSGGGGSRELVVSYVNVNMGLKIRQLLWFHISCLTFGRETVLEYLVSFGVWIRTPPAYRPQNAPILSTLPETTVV
The experiment in a line: Western blot of gB segments displayed on HBc149, reduced and heated. In general terms: Immunoblotting shows a protein as a band on a membrane.

Assay [9] deals with T1, EBV gB protein ectodomain (24-683 aa) …. The experiment in a line: indirect ELISA on coated wild-type gB ectodomain, 3A5 titrated [right panel].

B1: rabbit monoclonal antibody 3A3 (antibody, V domains shown)
VH: QSVKESGGRLVTPGTPLTLTCTVSGFSLSSYAMSWVRQAPGKGLEYIGVIYASGSTYYASWAKGRFTISRTATTVDLKITSPTTEDTATYFCGRGVSTNMWGPGTLVTVSS
VL: DLVMTQTPSSVSAAVGGTVTIKCQASQSLGGGLAWYQQKPGQRPKLLIYSASTLESGVPSRFRGSGSGTEFTLTISDLECADAATYYCQSAYGPTSNGLFNAFGGGTKVVIK
notes: Recombinant rabbit monoclonal antibody expressed in 293F cells; also called 3A3 antibody
One may read the koff as a measure of how fast the partners let go of each other. Read a low koff as slow dissociation. As usually defined, the kon is a measure of how fast the partners come together. Read a low kon as slower complex formation. For orientation: EC50 means the concentration needed to bring the measured effect to its halfway point. The term Kd denotes the concentration at which binding is half-saturated. In assay [1], B1 yielded a koff of 0.000162 s⁻¹ and a kon of 188000 M⁻¹ s⁻¹. The binding result in [2] was “binds”. The molecule further returned a concentration giving a half-maximal response (EC50) in [3] of 0.007 µg/mL. Also, in assay [4], the binding result is listed as “no binding (tested: 1 µg/mL)”. In [5], this molecule yielded a Kd of 863 pM. In addition, in [6], the “IC50 on the B cell infection model” value was determined as 2.97 µg/mL and the “IC50 on the epithelial cell infection model” value turned out to be 0.07 µg/mL. Besides, in [7], the binding result was “binds”.

B2: rabbit monoclonal antibody 3A5 (antibody, V domains shown)
VH: QSVKESGGRLVTPGTPLTLTCTVSGFSLSSYEMGWVRQAPGEGLEWIGTISTGGSSYYASWAKGRFTISRTSTTVDLKMTSLTTADTATYFCARGYGGYGIGAGYFNIWGPGTLVTVSS
VL: ALVMTQTPSSVSEPVGGTVTIKCQASQSISSYLAWYQRKPGQRPKLLIYGTSTLASGVPSRFIGSGSGTDYTLTISDLECDDAATYYCQQGFSTSNVYNSFGGGTKVDIK
notes: Recombinant rabbit monoclonal antibody expressed in 293F cells; also called 3A5 antibody
As a reminder, the EC50 (read off the curve) is the concentration giving half of the maximal effect. Low values mean higher potency in that assay, high ones lower potency in that assay. With B2, in assay [1], the koff stood at 0.000266 s⁻¹ and the kon was 648000 M⁻¹ s⁻¹. The molecule further showed an EC50 in assay [3] of 0.0052 µg/mL. Also, the binding result in assay [8] is recorded as “no binding (tested: 1 µg/mL)”. This molecule showed a Kd in [5] of 411 pM. In addition, in assay [6], the “IC50 on the B cell infection model” value turned out to be 4.9 µg/mL and the “IC50 on the epithelial cell infection model” value amounted to 0.31 µg/mL. Further, the “EC50 (read off the curve)” value in assay [9] was approximately 0.005 µg/mL. The binding result in assay [7] is “binds”.
